In IntAct's records for PubMed 20562859:

Columns and labels:
nek9_human NEK9 = target: T1, nek9_human NEK9 (UniProt Q8TD19)
T1 sequence: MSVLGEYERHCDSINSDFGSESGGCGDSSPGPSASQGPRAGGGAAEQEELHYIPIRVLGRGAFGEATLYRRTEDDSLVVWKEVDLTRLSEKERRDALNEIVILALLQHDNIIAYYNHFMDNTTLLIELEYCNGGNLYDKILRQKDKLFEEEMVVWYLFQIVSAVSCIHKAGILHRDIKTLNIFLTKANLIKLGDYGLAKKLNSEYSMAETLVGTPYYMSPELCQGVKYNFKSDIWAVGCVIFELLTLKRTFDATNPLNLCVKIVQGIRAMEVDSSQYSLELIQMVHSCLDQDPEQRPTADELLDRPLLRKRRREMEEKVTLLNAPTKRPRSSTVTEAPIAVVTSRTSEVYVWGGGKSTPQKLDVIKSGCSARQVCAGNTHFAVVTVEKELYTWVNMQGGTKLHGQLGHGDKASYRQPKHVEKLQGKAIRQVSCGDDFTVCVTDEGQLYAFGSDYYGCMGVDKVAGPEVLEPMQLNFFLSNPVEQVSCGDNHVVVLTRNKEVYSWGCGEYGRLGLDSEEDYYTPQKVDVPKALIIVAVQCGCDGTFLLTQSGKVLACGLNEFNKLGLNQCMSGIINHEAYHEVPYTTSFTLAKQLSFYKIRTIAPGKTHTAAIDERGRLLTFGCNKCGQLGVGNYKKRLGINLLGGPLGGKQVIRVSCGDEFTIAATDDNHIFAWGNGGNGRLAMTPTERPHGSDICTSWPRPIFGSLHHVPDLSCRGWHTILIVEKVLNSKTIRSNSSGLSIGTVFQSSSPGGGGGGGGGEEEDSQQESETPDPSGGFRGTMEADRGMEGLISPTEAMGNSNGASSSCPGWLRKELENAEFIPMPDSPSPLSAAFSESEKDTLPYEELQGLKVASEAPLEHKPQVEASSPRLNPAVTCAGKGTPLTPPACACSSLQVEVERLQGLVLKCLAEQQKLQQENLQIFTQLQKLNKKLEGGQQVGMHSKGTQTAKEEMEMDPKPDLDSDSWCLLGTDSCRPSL

daaf4_human DNAAF4 = target: T2, daaf4_human DNAAF4 (UniProt Q8WXU2)
T2 sequence: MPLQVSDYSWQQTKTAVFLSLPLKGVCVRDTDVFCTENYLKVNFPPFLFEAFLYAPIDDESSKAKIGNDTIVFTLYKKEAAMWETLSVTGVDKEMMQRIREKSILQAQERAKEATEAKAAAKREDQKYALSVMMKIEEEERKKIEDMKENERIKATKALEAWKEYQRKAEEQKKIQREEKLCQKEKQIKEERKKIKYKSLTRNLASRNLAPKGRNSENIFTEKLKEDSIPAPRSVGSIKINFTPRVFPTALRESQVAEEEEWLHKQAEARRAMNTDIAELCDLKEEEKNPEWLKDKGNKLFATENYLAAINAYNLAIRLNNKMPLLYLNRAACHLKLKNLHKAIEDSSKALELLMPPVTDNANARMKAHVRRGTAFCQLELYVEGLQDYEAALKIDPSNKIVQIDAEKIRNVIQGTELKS

fan_human NSMAF = fan_human NSMAF (UniProt Q92636)
fan_human NSMAF, sequence (Q92636 whole entry): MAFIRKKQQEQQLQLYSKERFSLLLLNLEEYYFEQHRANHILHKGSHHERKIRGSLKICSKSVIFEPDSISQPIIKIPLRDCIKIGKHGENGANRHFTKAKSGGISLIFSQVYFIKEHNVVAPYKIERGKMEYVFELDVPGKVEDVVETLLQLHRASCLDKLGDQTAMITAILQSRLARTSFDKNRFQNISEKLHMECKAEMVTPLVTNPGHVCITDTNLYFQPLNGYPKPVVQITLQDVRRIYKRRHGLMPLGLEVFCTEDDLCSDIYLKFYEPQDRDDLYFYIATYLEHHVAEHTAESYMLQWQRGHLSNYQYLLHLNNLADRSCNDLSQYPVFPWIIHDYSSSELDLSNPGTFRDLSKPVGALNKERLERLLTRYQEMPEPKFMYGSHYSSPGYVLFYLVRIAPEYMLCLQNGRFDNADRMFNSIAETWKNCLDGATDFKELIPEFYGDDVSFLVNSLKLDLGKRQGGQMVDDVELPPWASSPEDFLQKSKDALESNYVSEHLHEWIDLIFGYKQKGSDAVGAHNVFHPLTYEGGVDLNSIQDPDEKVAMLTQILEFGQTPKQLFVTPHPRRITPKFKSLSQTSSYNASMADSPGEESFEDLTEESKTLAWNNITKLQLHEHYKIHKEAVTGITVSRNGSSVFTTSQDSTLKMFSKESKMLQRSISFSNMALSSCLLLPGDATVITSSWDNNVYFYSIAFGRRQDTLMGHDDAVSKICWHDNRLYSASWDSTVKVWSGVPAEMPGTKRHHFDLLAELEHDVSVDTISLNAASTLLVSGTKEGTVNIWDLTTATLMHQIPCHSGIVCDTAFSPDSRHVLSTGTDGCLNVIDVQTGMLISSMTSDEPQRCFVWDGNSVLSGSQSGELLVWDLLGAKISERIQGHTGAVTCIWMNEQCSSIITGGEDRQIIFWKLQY

kap0_human PRKAR1A = kap0_human PRKAR1A (UniProt P10644)
kap0_human PRKAR1A, sequence (P10644 whole entry): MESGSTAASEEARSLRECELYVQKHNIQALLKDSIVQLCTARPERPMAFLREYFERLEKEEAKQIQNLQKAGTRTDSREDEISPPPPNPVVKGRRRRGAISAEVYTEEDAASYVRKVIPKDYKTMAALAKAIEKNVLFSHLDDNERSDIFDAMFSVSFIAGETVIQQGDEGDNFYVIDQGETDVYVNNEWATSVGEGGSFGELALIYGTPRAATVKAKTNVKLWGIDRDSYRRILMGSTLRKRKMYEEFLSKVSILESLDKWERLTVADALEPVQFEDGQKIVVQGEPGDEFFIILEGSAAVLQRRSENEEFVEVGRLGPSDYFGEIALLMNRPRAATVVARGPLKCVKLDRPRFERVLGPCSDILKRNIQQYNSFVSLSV

rasf1_human RASSF1 = target: T3, rasf1_human RASSF1 (UniProt Q9NS23)
T3 sequence: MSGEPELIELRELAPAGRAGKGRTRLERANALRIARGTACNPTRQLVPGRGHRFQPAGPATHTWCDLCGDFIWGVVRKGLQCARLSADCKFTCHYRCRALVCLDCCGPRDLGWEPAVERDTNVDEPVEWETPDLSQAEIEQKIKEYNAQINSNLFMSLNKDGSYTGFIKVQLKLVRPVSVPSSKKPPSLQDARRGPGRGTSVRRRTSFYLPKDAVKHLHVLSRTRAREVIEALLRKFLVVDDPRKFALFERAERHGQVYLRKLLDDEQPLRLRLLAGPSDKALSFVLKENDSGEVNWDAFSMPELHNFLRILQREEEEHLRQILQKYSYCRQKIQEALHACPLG

stk4_human STK4 = target: T4, stk4_human STK4 (UniProt Q13043)
T4 sequence: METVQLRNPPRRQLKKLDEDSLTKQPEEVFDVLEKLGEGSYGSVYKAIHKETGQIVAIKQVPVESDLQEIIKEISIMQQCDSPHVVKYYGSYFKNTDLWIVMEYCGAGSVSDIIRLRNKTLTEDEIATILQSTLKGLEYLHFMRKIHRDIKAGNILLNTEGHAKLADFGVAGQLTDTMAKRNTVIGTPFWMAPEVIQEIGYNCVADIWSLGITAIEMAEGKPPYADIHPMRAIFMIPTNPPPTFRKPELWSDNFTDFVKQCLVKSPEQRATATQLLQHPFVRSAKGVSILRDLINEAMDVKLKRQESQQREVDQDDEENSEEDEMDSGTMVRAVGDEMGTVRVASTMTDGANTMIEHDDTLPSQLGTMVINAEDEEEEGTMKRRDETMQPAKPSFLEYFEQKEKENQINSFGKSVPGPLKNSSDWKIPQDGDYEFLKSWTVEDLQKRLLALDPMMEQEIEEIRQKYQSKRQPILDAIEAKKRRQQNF

Substance	effect of a mutation on the interaction (nek9_human NEK9)	effect of a mutation on the interaction (daaf4_human DNAAF4)	effect of a mutation on the interaction (fan_human NSMAF)	effect of a mutation on the interaction (kap0_human PRKAR1A)	effect of a mutation on the interaction (rasf1_human RASSF1)	effect of a mutation on the interaction (stk4_human STK4)
Microtubule-associated protein 1 light chain 3 beta (Homo sapiens) (from UniProt Q9GZQ8) F52A;L53A	decreasing interaction	–	–	–	–	–
Microtubule-associated protein 1 light chain 3 beta (Homo sapiens) (from UniProt Q9GZQ8) R69A	–	decreasing interaction	disrupting interaction	decreasing interaction	decreasing interaction	disrupting interaction
